Laboratory results taken from the supplement of paper PMC7877785.
± gives the uncertainty stated by the source.

Assay: self-splicing fitness, log relative to wild type (ln ratio); higher = more splicing; Tetrahymena group I intron in knt gene, E. coli kanamycin selection, DiMSum; sequences stand for … in CUCUCU…GGAGGGAAAAGUUAUCAGGCAUGCACCUGGUAGCUAGUCUUUAAACCAAUAGAUUGCAUCGGUUUAAAAGGCAAGACCGUCAAAUUGCGGGAAAGGGGUCAACAGCCGUUCAGUACCAAGUCUCAGGGGAAACUUUGAGAUGGCCUUGCAAAGGGUAUGGUAAUAAGCUGACGGACAUGGUCCUAACCACGCAGCCAAGUCCUAAGUCAACAGAUCUUCUGUUGAUAUGGAUGCAGUUCACAGACUAAAUGUCGGUCGGGGAAGAUGUAUUCUUCUCAUAAGAUAUAGUCGGACCUCUCCUUAAUGGGAGCUAGCGGAUGAAGUGAUGCAACACUGGAGCCGCUGGGAACUAAUUUGUAUGCGAAAGUAUAUUGAUUAGUUUUGGAGUACUCGUGGUCG
Summary of the method: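 DiMSum derived fitness as the error-weighted combination of fold changes across replicates, kanamycin versus no kanamycin, normalised to wild type. E. coli BL21(DE3) held the library, which randomised all eight P1ex-region intron nucleotides within the knt kanamycin-resistance gene on pET-22b(+). Six replicate transformations grew overnight at 37°C or 30°C on LB agar with or without 25 μg/mL kanamycin, also containing 100 μg/mL carbenicillin, 50 μM IPTG and 0.2% rhamnose, and pooled colonies were amplicon-sequenced on an Illumina HiSeq 2500.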

Sequence	self-splicing fitness (ln) (30 °C)	self-splicing fitness (ln) (37 °C)
UAAGAGCAAUAUUACGGUAU	-3.87 ± 0.23	-2.27 ± 0.18
CAAAAGCAAUAUUACGCCCU	-2.13 ± 0.17	-0.434 ± 0.17
CCGUAGCAAUAUUACGCAUA	-2.31 ± 0.19	-2.12 ± 0.33
CGAGAGCAAUAUUACGGUGC	-3.73 ± 0.25	-3.43 ± 0.46
GUCUAGCAAUAUUACGACGG	-3.01 ± 0.29	-2.45 ± 0.27
CCCCAGCAAUAUUACGGGAA	-2.29 ± 0.096	-1.64 ± 0.088
GUUAAGCAAUAUUACGCGAU	-3.1 ± 0.21	-2.65 ± 0.29
CGUGAGCAAUAUUACGCUCA	-2.84 ± 0.31	
GGGGAGCAAUAUUACGCUUC	-3.28 ± 0.4	-2.12 ± 0.49
UCGUAGCAAUAUUACGAGGU	-3.27 ± 0.21	-2.06 ± 0.19
CGUAAGCAAUAUUACGCAGG	-2.25 ± 0.094	-1.02 ± 0.11
AACAAGCAAUAUUACGAAUU	-1.9 ± 0.091	-0.666 ± 0.12
AUCCAGCAAUAUUACGGAUU	-3.25 ± 0.12	-2.83 ± 0.21
GCCGAGCAAUAUUACGAAUA		-1.51 ± 0.47
CCCGAGCAAUAUUACGGUUU	-3.14 ± 0.11	-1.96 ± 0.12
GUAGAGCAAUAUUACGAGCA	-0.443 ± 0.17	-0.601 ± 0.22
GCGUAGCAAUAUUACGGGCU	-3.57 ± 0.32	-1.62 ± 0.2
AGUGAGCAAUAUUACGGCUC	-4.11 ± 0.26	-2.03 ± 0.2
CGCGAGCAAUAUUACGUCGU	-3.51 ± 0.23	-3.58 ± 0.31
CUUCAGCAAUAUUACGAUAU	-3.28 ± 0.22	-1.73 ± 0.27
UUCUAGCAAUAUUACGGAAC	-3.74 ± 0.43	-1.86 ± 0.3
ACGCAGCAAUAUUACGAGGU	-3.55 ± 0.17	-2.27 ± 0.16
CAGUAGCAAUAUUACGUUAA	-2.74 ± 0.19	-3.5 ± 0.23
UAACAGCAAUAUUACGUCAC	-2.97 ± 0.15	-1.82 ± 0.16
UUUGAGCAAUAUUACGAGUA		-1.86 ± 0.21
UGUUAGCAAUAUUACGCUGG	-3.77 ± 0.24	0.0911 ± 0.15

Sequence	self-splicing fitness (ln) (30 °C)	self-splicing fitness (ln) (37 °C)
UGACAGCAAUAUUACGGAGU	-4.14 ± 0.2	-2.79 ± 0.13
UUCAAGCAAUAUUACGCGAA	-3.01 ± 0.18	-1.47 ± 0.13
CGCUAGCAAUAUUACGAGCG	-4.02 ± 0.39	-2.69 ± 0.39
AUACAGCAAUAUUACGACGA	-1.84 ± 0.13	-0.966 ± 0.13
ACGGAGCAAUAUUACGUCAG	-3.38 ± 0.19	-1.69 ± 0.18
ACACAGCAAUAUUACGCGAA	-2.47 ± 0.12	-1.4 ± 0.12
GCUGAGCAAUAUUACGGGAG	-2.58 ± 0.35	-2.15 ± 0.3
AAGAAGCAAUAUUACGCUAG	-2.36 ± 0.14	-0.458 ± 0.13
GCUUAGCAAUAUUACGUUGU	-1.5 ± 0.066	-0.844 ± 0.093
UUGCAGCAAUAUUACGCUCA	-0.833 ± 0.18	-0.278 ± 0.17
CAACAGCAAUAUUACGUCAA	-3.49 ± 0.13	-2.08 ± 0.1
ACGUAGCAAUAUUACGACGC	-0.35 ± 0.25	-0.563 ± 0.3
GGGCAGCAAUAUUACGCAUA	-1 ± 0.092	0.38 ± 0.13
AAUUAGCAAUAUUACGACCU	0.197 ± 0.19	0.333 ± 0.21
CCUAAGCAAUAUUACGCUGG	-4.1 ± 0.32	-2.48 ± 0.25
ACUAAGCAAUAUUACGACGC	-0.258 ± 0.11	-0.0244 ± 0.12
AACAAGCAAUAUUACGGACA	-1.6 ± 0.094	0.312 ± 0.095
UCUGAGCAAUAUUACGGAUA	-3.08 ± 0.47	-1.57 ± 0.25
GUUAAGCAAUAUUACGAAAC	-3 ± 0.48	-2.83 ± 0.48
AGAGAGCAAUAUUACGUAGG		-2.16 ± 0.43
ACUGAGCAAUAUUACGUUCG	-2.2 ± 0.15	-0.355 ± 0.12
UAAGAGCAAUAUUACGGUAC		-2.25 ± 0.41
UCCUAGCAAUAUUACGAGUA	-1.12 ± 0.14	-0.911 ± 0.13
GUGUAGCAAUAUUACGACAC	-2.68 ± 0.18	-2.17 ± 0.2
UCGCAGCAAUAUUACGUGCC	-2.66 ± 0.21	-2.7 ± 0.36
GCAUAGCAAUAUUACGAAGG	-2.02 ± 0.2	-1.31 ± 0.22

Sequence	self-splicing fitness (ln) (30 °C)	self-splicing fitness (ln) (37 °C)
AGUAAGCAAUAUUACGGAGG	-2.9 ± 0.28	-2.29 ± 0.26
UGGUAGCAAUAUUACGUGGA	-2.71 ± 0.26	-1.98 ± 0.16
UCGCAGCAAUAUUACGGGGA	-1.31 ± 0.12	-1.11 ± 0.1
CUUUAGCAAUAUUACGCCCG	-0.47 ± 0.17	0.513 ± 0.24
GAAGAGCAAUAUUACGGGCU	-3.17 ± 0.17	-3.07 ± 0.28
ACGCAGCAAUAUUACGCGCC	-2.5 ± 0.15	-3.01 ± 0.27
AAGAAGCAAUAUUACGGCCC	-0.651 ± 0.13	-0.518 ± 0.16
UACAAGCAAUAUUACGCUCA	-0.545 ± 0.087	-0.0026 ± 0.12
CGAUAGCAAUAUUACGGGCC	-1.62 ± 0.49	-1.8 ± 0.4
ACCGAGCAAUAUUACGACGA	-1.16 ± 0.15	-0.75 ± 0.15
CUUUAGCAAUAUUACGUGGU	-2.28 ± 0.25	-2.8 ± 0.26
CAUGAGCAAUAUUACGGUGG	-1.49 ± 0.078	-0.665 ± 0.088
AAUUAGCAAUAUUACGCGUA	-1.07 ± 0.12	-0.804 ± 0.14
CAAGAGCAAUAUUACGCGCU	-3.72 ± 0.4	-2.34 ± 0.33
CUGAAGCAAUAUUACGUACU	-3.61 ± 0.31	-2.92 ± 0.34
GGACAGCAAUAUUACGAUGC	0.225 ± 0.075	0.446 ± 0.09
GUUAAGCAAUAUUACGCUUC		-1.01 ± 0.49
GGUCAGCAAUAUUACGUGUU	-0.208 ± 0.047	0.537 ± 0.063
CCCCAGCAAUAUUACGCGCC	-3.19 ± 0.19	-3.17 ± 0.47
UAUGAGCAAUAUUACGACGG	-2.02 ± 0.13	-1.83 ± 0.19
UCCUAGCAAUAUUACGAACG	-1.85 ± 0.2	-1.78 ± 0.3
GCUCAGCAAUAUUACGCUAA	-2.11 ± 0.11	-0.785 ± 0.11
GUCUAGCAAUAUUACGGACC	-3.95 ± 0.46	-0.565 ± 0.24
CCAGAGCAAUAUUACGAAAA	-2.94 ± 0.32	-1.54 ± 0.35
AACAAGCAAUAUUACGUAAG	-1.93 ± 0.058	-1.16 ± 0.077
